Data taken from US20190324040A1.

Assays:
[1] = molecular target: Zika virus (ZIKV), whole virus particles (Zika virus); assay: P1F12-ZIKV binding inhibition ELISA (4G2-captured ZIKV); competitor: 1/10 plasma of donor 152 (DENV+)
[2] = molecular target: Zika virus (ZIKV), whole virus particles (Zika virus); assay: P1F12-ZIKV binding inhibition ELISA (4G2-captured ZIKV); competitor: 1/10 plasma of donor 802 (ZIKV+)
[3] = molecular target: Zika virus (ZIKV), whole virus particles (Zika virus); assay: P1F12-ZIKV binding inhibition ELISA (4G2-captured ZIKV); competitor: 1/10 plasma of donor 1252 (DENV+)
[4] = molecular target: Zika virus (ZIKV), whole virus particles (Zika virus); assay: P1F12-ZIKV binding inhibition ELISA (4G2-captured ZIKV); competitor: 1/10 plasma of donor Class 11 (U.S. naive)
[5] = molecular target: Zika virus (ZIKV), whole virus particles (Zika virus); assay: P1F12-ZIKV binding inhibition ELISA (4G2-captured ZIKV); competitor: 1/10 plasma of donor 3004 (ZIKV+)
[6] = molecular target: Zika virus (ZIKV), whole virus particles (Zika virus); assay: P1F12-ZIKV binding inhibition ELISA (4G2-captured ZIKV); competitor: 1/10 plasma of donor hu002 (U.S. naive)
[7] = molecular target: Zika virus (ZIKV), whole virus particles (Zika virus); assay: P1F12-ZIKV binding inhibition ELISA (4G2-captured ZIKV); competitor: 1/10 plasma of donor Class 10 (U.S. naive)
[8] = molecular target: Zika virus (ZIKV), whole virus particles (Zika virus); assay: P1F12-ZIKV binding inhibition ELISA (4G2-captured ZIKV); competitor: 1/10 plasma of donor 515 (naive)
[9] = molecular target: Zika virus (ZIKV), whole virus particles (Zika virus); assay: P1F12-ZIKV binding inhibition ELISA (4G2-captured ZIKV); competitor: 1/10 plasma of donor 3013 (ZIKV+)
[10] = molecular target: Zika virus (ZIKV), whole virus particles (Zika virus); assay: cell-based or functional assay
[11] = molecular target: Zika virus (ZIKV), whole virus particles (Zika virus); assay: P1F12-ZIKV binding inhibition ELISA (4G2-captured ZIKV); competitor: 1/10 plasma of donor Class 6 (U.S. naive)
[12] = molecular target: Zika virus (ZIKV), whole virus particles (Zika virus); assay: P1F12-ZIKV binding inhibition ELISA (4G2-captured ZIKV); competitor: 1/10 plasma of donor FA7006 (YF vaccine)
[13] = molecular target: Zika virus (ZIKV), whole virus particles (Zika virus); assay: P1F12-ZIKV binding inhibition ELISA (4G2-captured ZIKV); competitor: 1/10 plasma of donor FA2005 (YF vaccine)
[14] = molecular target: Zika virus (ZIKV), whole virus particles (Zika virus); assay: P1F12-ZIKV binding inhibition ELISA (4G2-captured ZIKV); competitor: 1/10 plasma of donor 1255 (naive)
[15] = molecular target: Zika virus (ZIKV), whole virus particles (Zika virus); assay: P1F12-ZIKV binding inhibition ELISA (4G2-captured ZIKV); competitor: 1/10 plasma of donor FA2004 (YF vaccine)
[16] = molecular target: Zika virus (ZIKV), whole virus particles (Zika virus); assay: P1F12-ZIKV binding inhibition ELISA (4G2-captured ZIKV); competitor: 1/10 plasma of donor 12 (naive)
[17] = molecular target: Zika virus (ZIKV), whole virus particles (Zika virus); assay: P1F12-ZIKV binding inhibition ELISA (4G2-captured ZIKV); competitor: 1/10 plasma of donor Class 5 (U.S. naive)
[18] = molecular target: Zika virus (ZIKV), whole virus particles (Zika virus); assay: P1F12-ZIKV binding inhibition ELISA (4G2-captured ZIKV); competitor: 1/10 plasma of donor 801 (ZIKV+)
[19] = molecular target: Zika virus (ZIKV), whole virus particles (Zika virus); assay: P1F12-ZIKV binding inhibition ELISA (4G2-captured ZIKV); competitor: 1/10 plasma of donor 533 (ZIKV+)
[20] = molecular target: Zika virus (ZIKV), whole virus particles (Zika virus); assay: P1F12-ZIKV binding inhibition ELISA (4G2-captured ZIKV); competitor: 1/10 plasma of donor 1248 (DENV+)
[21] = molecular target: Zika virus (ZIKV), whole virus particles (Zika virus); assay: P1F12-ZIKV binding inhibition ELISA (4G2-captured ZIKV); competitor: 1/10 plasma of donor 1280 (DENV+)
[22] = molecular target: Zika virus (ZIKV), whole virus particles (Zika virus); assay: P1F12-ZIKV binding inhibition ELISA (4G2-captured ZIKV); competitor: 1/10 plasma of donor 3002 (ZIKV+)
[23] = molecular target: Zika virus (ZIKV), whole virus particles (Zika virus); assay: P1F12-ZIKV binding inhibition ELISA (4G2-captured ZIKV); competitor: 1/10 plasma of donor FA2002 (YF vaccine)
[24] = molecular target: Zika virus (ZIKV), whole virus particles (Zika virus); assay: P1F12-ZIKV binding inhibition ELISA (4G2-captured ZIKV); competitor: 1/10 plasma of donor 1294 (DENV+)
[25] = molecular target: Zika virus (ZIKV), whole virus particles (Zika virus); assay: P1F12-ZIKV binding inhibition ELISA (4G2-captured ZIKV); competitor: 1/10 plasma of donor 138 (DENV+)
[26] = molecular target: Zika virus (ZIKV), whole virus particles (Zika virus); assay: P1F12-ZIKV binding inhibition ELISA (4G2-captured ZIKV); competitor: 1/10 plasma of donor 177 (DENV+)
[27] = molecular target: Zika virus (ZIKV), whole virus particles (Zika virus); assay: P1F12-ZIKV binding inhibition ELISA (4G2-captured ZIKV); competitor: 1/10 plasma of donor hu004 (ZIKV+)
[28] = molecular target: Zika virus (ZIKV), whole virus particles (Zika virus); assay: P1F12-ZIKV binding inhibition ELISA (4G2-captured ZIKV); competitor: 1/10 plasma of donor Class 7 (U.S. naive)
[29] = molecular target: Zika virus (ZIKV), whole virus particles (Zika virus); assay: P1F12-ZIKV binding inhibition ELISA (4G2-captured ZIKV); competitor: 1/10 plasma of donor Class 2 (U.S. naive)
[30] = molecular target: Zika virus (ZIKV), whole virus particles (Zika virus); assay: P1F12-ZIKV binding inhibition ELISA (4G2-captured ZIKV); competitor: 1/10 plasma of donor 1302 (ZIKV+)
[31] = molecular target: Zika virus (ZIKV), whole virus particles (Zika virus); assay: P1F12-ZIKV binding inhibition ELISA (4G2-captured ZIKV); competitor: 1/10 plasma of donor 1208 (DENV+)
[32] = molecular target: Zika virus (ZIKV), whole virus particles (Zika virus); assay: P1F12-ZIKV binding inhibition ELISA (4G2-captured ZIKV); competitor: 1/10 plasma of donor Class 4 (U.S. naive)
[33] = molecular target: Zika virus (ZIKV), whole virus particles (Zika virus); assay: P1F12-ZIKV binding inhibition ELISA (4G2-captured ZIKV); competitor: 1/10 plasma of donor 1261 (naive)
[34] = molecular target: Zika virus (ZIKV), whole virus particles (Zika virus); assay: P1F12-ZIKV binding inhibition ELISA (4G2-captured ZIKV); competitor: 1/10 plasma of donor 3012 (ZIKV+)
[35] = molecular target: Zika virus (ZIKV), whole virus particles (Zika virus); assay: P1F12-ZIKV binding inhibition ELISA (4G2-captured ZIKV); competitor: 1/10 plasma of donor Class 3 (U.S. naive)
[36] = molecular target: Zika virus (ZIKV), whole virus particles (Zika virus); assay: P1F12-ZIKV binding inhibition ELISA (4G2-captured ZIKV); competitor: 1/10 plasma of donor Class 1 (U.S. naive)
[37] = molecular target: Zika virus (ZIKV), whole virus particles (Zika virus); assay: P1F12-ZIKV binding inhibition ELISA (4G2-captured ZIKV); competitor: 1/10 plasma of donor 507 (DENV+)
[38] = molecular target: Zika virus (ZIKV), whole virus particles (Zika virus); assay: P1F12-ZIKV binding inhibition ELISA (4G2-captured ZIKV); competitor: 1/10 plasma of donor Class 14 (U.S. naive)
[39] = molecular target: Zika virus (ZIKV), whole virus particles (Zika virus); assay: P1F12-ZIKV binding inhibition ELISA (4G2-captured ZIKV); competitor: 1/10 plasma of donor 3018 (ZIKV+)
[40] = molecular target: Zika virus (ZIKV), whole virus particles (Zika virus); assay: P1F12-ZIKV binding inhibition ELISA (4G2-captured ZIKV); competitor: 1/10 plasma of donor Class 12 (U.S. naive)
[41] = molecular target: Zika virus (ZIKV), whole virus particles (Zika virus); assay: P1F12-ZIKV binding inhibition ELISA (4G2-captured ZIKV); competitor: 1/10 plasma of donor Class 8 (U.S. naive)
[42] = molecular target: Zika virus (ZIKV), whole virus particles (Zika virus); assay: P1F12-ZIKV binding inhibition ELISA (4G2-captured ZIKV); competitor: 1/10 plasma of donor Class 13 (U.S. naive)
[43] = molecular target: Zika virus (ZIKV), whole virus particles (Zika virus); assay: P1F12-ZIKV binding inhibition ELISA (4G2-captured ZIKV); competitor: 1/10 plasma of donor 168 (DENV+)
[44] = molecular target: Zika virus (ZIKV), whole virus particles (Zika virus); assay: P1F12-ZIKV binding inhibition ELISA (4G2-captured ZIKV); competitor: 1/10 plasma of donor 184 (DENV+)
[45] = molecular target: Zika virus (ZIKV), whole virus particles (Zika virus); assay: P1F12-ZIKV binding inhibition ELISA (4G2-captured ZIKV); competitor: 1/10 plasma of donor 1235 (DENV+)
[46] = molecular target: Zika virus (ZIKV), whole virus particles (Zika virus); assay: P1F12-ZIKV binding inhibition ELISA (4G2-captured ZIKV); competitor: 1/10 plasma of donor Class 9 (U.S. naive)
[47] = molecular target: Zika virus (ZIKV), whole virus particles (Zika virus); assay: P1F12-ZIKV binding inhibition ELISA (4G2-captured ZIKV); competitor: 1/10 plasma of donor 1273 (naive)
[48] = molecular target: Zika virus (ZIKV), whole virus particles (Zika virus); assay: virus capture ELISA

B1: CC17 mAb (P1F12) (antibody, V domains shown)
VH: QVQLVQSGGGLVQPGGSLRLSCAASGFTFSSYWMSWVRQAPGKGLEWVANIKQDGSEKYYVDSVKGRFTISRDNAKNSLYLQMNSLRAEDTAVYYCAGNGWDDSSGYYYRNYYYGMDVWGQGTTVTVSS
VL: DIQMTQSPSSFSASTGDRVTITCRASQGISSYLAWYQQKPGKAPKLLIYAASTLQSGVPSRFSGSGSGTDFTLTISCLQSEDFATYYCQQYYSYPRTFGGGTKVDIK
P1F12-ZIKV inhibition assay (Abs450) [1]: 0.15 Abs450
P1F12-ZIKV inhibition assay (Abs450) [2]: 0.05 Abs450
P1F12-ZIKV inhibition assay (Abs450) [3]: 0.19 Abs450
P1F12-ZIKV inhibition assay (Abs450) [4]: 0.395 Abs450
P1F12-ZIKV inhibition assay (Abs450) [5]: 0.03 Abs450
P1F12-ZIKV inhibition assay (Abs450) [6]: 0.57 Abs450
P1F12-ZIKV inhibition assay (Abs450) [7]: 0.315 Abs450
P1F12-ZIKV inhibition assay (Abs450) [8]: 0.293 Abs450
P1F12-ZIKV inhibition assay (Abs450) [9]: 0.03 Abs450
% of Zika virus Neutralized (Vero infectivity assay), antibody at 1 µg/ml [10]: 82.3%
Neut50 [10]: 2 µg/mL
PRNT50 (plaque reduction neutralization test) [10]: 2 µg/mL
P1F12-ZIKV inhibition assay (Abs450) [11]: 0.292 Abs450
P1F12-ZIKV inhibition assay (Abs450) [12]: 0.396 Abs450
P1F12-ZIKV inhibition assay (Abs450) [13]: 0.332 Abs450
P1F12-ZIKV inhibition assay (Abs450) [14]: 0.323 Abs450
P1F12-ZIKV inhibition assay (Abs450) [15]: 0.393 Abs450
P1F12-ZIKV inhibition assay (Abs450) [16]: 0.22 Abs450
P1F12-ZIKV inhibition assay (Abs450) [17]: 0.389 Abs450
P1F12-ZIKV inhibition assay (Abs450) [18]: 0.04 Abs450
P1F12-ZIKV inhibition assay (Abs450) [19]: 0.03 Abs450
P1F12-ZIKV inhibition assay (Abs450) [20]: 0.36 Abs450
P1F12-ZIKV inhibition assay (Abs450) [21]: 0.29 Abs450
P1F12-ZIKV inhibition assay (Abs450) [22]: 0.04 Abs450
P1F12-ZIKV inhibition assay (Abs450) [23]: 0.319 Abs450
P1F12-ZIKV inhibition assay (Abs450) [24]: 0.29 Abs450
P1F12-ZIKV inhibition assay (Abs450) [25]: 0.34 Abs450
P1F12-ZIKV inhibition assay (Abs450) [26]: 0.18 Abs450
P1F12-ZIKV inhibition assay (Abs450) [27]: 0.04 Abs450
P1F12-ZIKV inhibition assay (Abs450) [28]: 0.246 Abs450
P1F12-ZIKV inhibition assay (Abs450) [29]: 0.312 Abs450
P1F12-ZIKV inhibition assay (Abs450) [30]: 0.62 Abs450
P1F12-ZIKV inhibition assay (Abs450) [31]: 0.25 Abs450
P1F12-ZIKV inhibition assay (Abs450) [32]: 0.392 Abs450
P1F12-ZIKV inhibition assay (Abs450) [33]: 0.405 Abs450
P1F12-ZIKV inhibition assay (Abs450) [34]: 0.05 Abs450
P1F12-ZIKV inhibition assay (Abs450) [35]: 0.406 Abs450
P1F12-ZIKV inhibition assay (Abs450) [36]: 0.323 Abs450
P1F12-ZIKV inhibition assay (Abs450) [37]: 0.28 Abs450
P1F12-ZIKV inhibition assay (Abs450) [38]: 0.323 Abs450
P1F12-ZIKV inhibition assay (Abs450) [39]: 0.04 Abs450
P1F12-ZIKV inhibition assay (Abs450) [40]: 0.344 Abs450
P1F12-ZIKV inhibition assay (Abs450) [41]: 0.303 Abs450
P1F12-ZIKV inhibition assay (Abs450) [42]: 0.276 Abs450
P1F12-ZIKV inhibition assay (Abs450) [43]: 0.32 Abs450
P1F12-ZIKV inhibition assay (Abs450) [44]: 0.26 Abs450
P1F12-ZIKV inhibition assay (Abs450) [45]: 0.18 Abs450
P1F12-ZIKV inhibition assay (Abs450) [46]: 0.316 Abs450
P1F12-ZIKV inhibition assay (Abs450) [47]: 0.395 Abs450
ZIKV binding Abs 450 nm [48]: 0.17 Abs 450 nm
